Test results as given in patent US20190144541A1 (BEIJING DONGFANG BIOTECH, published 2019).
Where a chain is given by its changes, count along the chain named.

Legend:
PD-1 on PD1-CHO cells = target: T1, PD-1 on PD1-CHO cells; experiment: cell ELISA on fixed PD1-CHO cells, anti-human Fc-HRP
T1 construct: also called cell-surface PD-1
Procedure: Firstly, the CHO cell line with stable PD-1 over-expression was made and named PD1-CHO. After coating 96-well plates with gelatin, PD1-CHO cells was digested by trypsin and then stopped. After centrifuging and suspending these cells, the cells were diluted to 2×10⁵ cells/mL, 100 μL per well in 96-well plates, totally 12 well×6 row, namely 2×10⁴ cells/well, and cultured at 5% CO₂, 37° C. overnight. The culture medium were discarded the next day, and the wells were washed one time with 350 μL precooling PBS. Freshly prepared 2% PFA was added to fix 5 minutes, and then PBS was used to wash two times.
The full-length anti-PD-1 antibody of double dilution was added into the cell plates, the diluent is PBS with 0.5% BSA. Sample concentration started from 100 μg/mL, diluting for 8 times, totally 12 gradients of dilution. After incubating for 30 minutes at room temperature, supernatant was discarded, and wells were washed three times with 350 μL pre-cooled PBS. The anti-human Fc-HRP Secondary antibodies diluted at 1:5000 were added, and incubated for 15 minutes at room temperature. After washing three times with 350 μL PBS, 100 μL TMB stain solution was added into each well, staining for 15 to 30 minutes at room temperature. After adding 50 μL2 mol/L H2504 per well to stop the staining, the optical density was read at 450 nm and 630 nm wavelength with the microplate reader.

[1] = target: T2, PD-1 (analyte in the BIAcore X100 assay) (UniProt Q15116 25-167, limits assumed); experiment: SPR, BIAcore X100, antibody captured by anti-human IgG on CM5 chip, PD-1 as analyte
T2 construct: also called Programmed Cell Death 1
Procedure: The affinity of the antibodies were determined by ligand-capture method. Anti-human IgG was coupled to the surface of CM5 chip, and DFPD1-9, DFPD1-10, DFPD1-11, DFPD1-12 and DFPD1-13 were diluted respectively to ensure the capturing about 300 RU of the antibody by the anti-human IgG.

PD-1-His [2] = target: T3, PD-1-His (UniProt Q15116 25-167, limits assumed); experiment: ELISA on coated PD-1-His (60 ng/well), anti-human Fc-HRP
T3 construct: also called antigen PD-1-His; not shown: His tag
Procedure: After washing five times with 300 μl/well PBST, the wells were blocked for two hours with 1% BSA-PBS at 37° C. Different dilution of the antibodies DFPD1-9, DFPD1-10, DFPD1-11, DFPD1-12 and DFPD1-13 were added. The highest concentration of these five kinds of antibodies is 16 μg/mL, diluted for 4 times to 11 gradients, and the last well was used as the negative control which was added PBS diluent only. After incubating at 37° C. for one hour, the wells were washed five times with 300 μL/well of PBST, then adding the anti-human Fc-HRP secondary antibodies diluted at 1:40000 with 1% BSA-PBS, incubating at 37° C. for one hour. After staining with TMB stain solution kit, 100 μL/well, for 8 minutes at room temperature, the reaction was stopped with 50 µL of 2 mol/L H₂SO₄/well, and the optical density was determined at 450 nm and 630 nm wavelength.

PD-1-His [3] = target: T3, PD-1-His; experiment: competition ELISA: antibody premixed with 4 ug/mL PD1-His, added to coated PDL1-Fc, bound PD1-His detected with anti-His-HRP
Procedure: PDL1-Fc in pH9.6 carbonate buffer solution was used for coating plates at 4° C. for overnight. After washing five times with PBST, the wells were blocked for two hours with 1% BSA-PBS at 37° C. […] After incubating at 37° C. for one hour, the wells were washed five times with PBST, and then the mouse anti-His antibody HRP labeled with 1% BSA-PBS diluted were added. After incubating at 37° C. for one hour, the wells were stained with TMB stain solution kit, 100 μL/well, for 8 minutes at room temperature. The reaction was stopped with 50 µL of 10% H₂SO₄/well. The optical density was read at 450 nm and 630 nm wavelength. The result is shown in FIG. 16, DFPD1-9, DFPD1-10, DFPD1-11, DFPD1-12 and DFPD1-13 can inhibit the binding of PD-1 and PD-L1.

T1 sequence (chain, as listed by the source limits assumed): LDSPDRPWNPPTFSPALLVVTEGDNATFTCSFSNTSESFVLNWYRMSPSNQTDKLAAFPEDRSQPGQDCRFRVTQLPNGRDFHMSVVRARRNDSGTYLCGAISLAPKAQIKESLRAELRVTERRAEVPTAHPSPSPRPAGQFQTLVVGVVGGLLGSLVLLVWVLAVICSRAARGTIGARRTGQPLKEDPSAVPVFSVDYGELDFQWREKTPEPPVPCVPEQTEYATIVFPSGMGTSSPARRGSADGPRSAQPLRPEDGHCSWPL
T2 sequence (Q15116 25-167 limits assumed): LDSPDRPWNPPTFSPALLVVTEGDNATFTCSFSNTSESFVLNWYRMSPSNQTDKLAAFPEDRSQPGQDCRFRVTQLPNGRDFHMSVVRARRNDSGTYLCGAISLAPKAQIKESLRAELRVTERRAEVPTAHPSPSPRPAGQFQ
T3 sequence (Q15116 25-167 limits assumed): as above

B1: DFPD1-9 full-length anti-PD-1 monoclonal antibody (antibody, human IgG4 S228P, kappa, V domains shown)
VH: QVQLVESGGGVVQPGRSLRLDCKASGITFSNYGMHWVRQAPGKGLEWVAVIWYDSSRKYYADSVKGRFTISRDNSKNTLFLQMNSLRAEDTAVYYCATNNDYWGQGTLVTVSS
VL: DIQMTQSPSSLSASVGDRVTITCRASQSIHNYLDWYQQKPGKAPKLLIYNASTRATGVPSRFSGSGSGTDFTLTISSLQPEDFATYYCQQELHLPLTFGQGTKVEIKR
notes: Expressed in HEK293E cells and purified on protein A
In the case of B1, the “EC50 (read off the curve)” value (PD-1 on PD1-CHO cells) is reported as ~2 nM, the Kd [1] is reported as 6.43 nM and the koff [1] is reported as 0.000105 s⁻¹. The kon [1] was 16300 M⁻¹ s⁻¹, the “EC50 (read off the curve)” value (PD-1-His [2]) was ~0.006 µg/mL and the “IC50 (read off the curve)” value (PD-1-His [3]) was ~0.1 µg/mL.

B2: DFPD1-10 full-length anti-PD-1 monoclonal antibody (antibody, human IgG4 S228P, kappa, V domains shown)
VH: B1 VH
VL: B1 VL with I29V, H30S, N50D, E91N, L92M, H93Q
notes: as for B1
For B2, the “EC50 (read off the curve)” value (PD-1 on PD1-CHO cells) was ~0.9 nM, the Kd [1] was 3.96 nM and the koff [1] was 0.00013 s⁻¹. The kon [1] was 32800 M⁻¹ s⁻¹, the “EC50 (read off the curve)” value (PD-1-His [2]) was ~0.007 µg/mL and the “IC50 (read off the curve)” value (PD-1-His [3]) was ~0.1 µg/mL.

B3: DFPD1-11 full-length anti-PD-1 monoclonal antibody (antibody, human IgG4 S228P, kappa, V domains shown)
VH: B1 VH with Y32N
VL: B1 VL
notes: as for B1
B3 was tested, and the “EC50 (read off the curve)” value (PD-1 on PD1-CHO cells) was ~4 nM, the Kd [1] was 10.8 nM and the koff [1] was 0.000102 s⁻¹. For the same binder, the kon [1] was 9360 M⁻¹ s⁻¹, the “EC50 (read off the curve)” value (PD-1-His [2]) was ~0.006 µg/mL and the “IC50 (read off the curve)” value (PD-1-His [3]) was ~0.07 µg/mL.

B4: DFPD1-12 full-length anti-PD-1 monoclonal antibody (antibody, human IgG4 S228P, kappa, V domains shown)
VH: B1 VH with S55G, R57K
VL: B1 VL
notes: as for B1
In the case of B4, the “EC50 (read off the curve)” value (PD-1 on PD1-CHO cells) is reported as ~2 nM, the Kd [1] is reported as 22.4 nM and the koff [1] is reported as 0.000298 s⁻¹. The kon [1] was 13300 M⁻¹ s⁻¹, the “EC50 (read off the curve)” value (PD-1-His [2]) was ~0.006 µg/mL and the “IC50 (read off the curve)” value (PD-1-His [3]) was ~0.05 µg/mL.

B5: DFPD1-13 full-length anti-PD-1 monoclonal antibody (antibody, human IgG4 S228P, kappa, V domains shown)
VH: B1 VH with Y32N
VL: B1 VL with I29V, H30S, N50D, E91N, L92M, H93Q
notes: as for B1
For B5, the “EC50 (read off the curve)” value (PD-1 on PD1-CHO cells) was ~2 nM, the Kd [1] was 9.5 nM and the koff [1] was 0.000108 s⁻¹. For the same binder, the kon [1] was 18100 M⁻¹ s⁻¹, the “EC50 (read off the curve)” value (PD-1-His [2]) was ~0.008 µg/mL and the “IC50 (read off the curve)” value (PD-1-His [3]) was ~0.08 µg/mL.
